Patent US20240352438A1, “MEANS AND METHODS FOR DETOXIFYING OCHRATOXIN A” (DSM Austria GmbH, priority 2021, published 2024)
Positions count from the first letter of the chain named.

B1: 53 (protein)
chain: MTTRTRILTAFLSLLAANACAADAAPAAPHTVVLRAARMFDGASGKLVDHPQLTIVGNKIVRIAQGDKAEVPAGAEVVDLGDATLLPGFIDAHVHLSGQSSDNWYGDFFDNMMRFPAEQALYGAYYARITLEAGFTSVRDVGSTDWVALGLRNAIDAGKVPGPRMLVSNYAVGSTGGHADQDSIPPHKLPLAGPLQGVCNGPEECRAAVRYQIKYGANVIKFMPSGGVLSLSDPVDAPELSQDEMNAVIGESHAWGRKVAAHAHGDKAAKMAVAAGVDSIEHGSFIEDDTLRAMKAKNVYLVPTISAIAHVEEKIGTFPPVIAEKGRAAAAHLRQTFRHAVQIGVPIALGTDAGVGAHGSNAREFRYMVENGLTPAQALLAGTANAARLLGTFDRVGTLEAGKLADVVAVPGNPIADITVTERPLFVMKDGVVVRRDAVR
modifications: exemplary polypeptide
B2: 68 (protein)
chain: B1 chain with S183P, A357P
modifications: exemplary polypeptide
B3: 77 (protein)
chain: B1 chain with S183P, A307G, V311A
modifications: exemplary polypeptide
B4: 56 (protein)
chain: B1 chain with S183P, L229M
modifications: exemplary polypeptide
B5: 67 (protein)
chain: B1 chain with S183P, V355A
modifications: exemplary polypeptide
B6: 73 (protein)
chain: B1 chain with S183P, M223A
modifications: exemplary polypeptide
B7: 64 (protein)
chain: B1 chain with S143E, S183P
modifications: exemplary polypeptide
B8: 71 (protein)
chain: B1 chain with S183P, H264Q
modifications: exemplary polypeptide
B9: 72 (protein)
chain: B1 chain with S183P, M223C
modifications: exemplary polypeptide
B10: 63 (protein)
chain: B1 chain with S183P, E239Q
modifications: exemplary polypeptide
B11: 69 (protein)
chain: B1 chain with Q181M, S183P
modifications: exemplary polypeptide
B12: 48 (protein)
chain: B1 chain with F109A, S183P
modifications: exemplary polypeptide
B13: 55 (protein)
chain: B1 chain with S183P, L229V
modifications: exemplary polypeptide
B14: 54 (protein)
chain: B1 chain with S183P, V228A
modifications: exemplary polypeptide
B15: 66 (protein)
chain: B1 chain with S183P, V311A
modifications: exemplary polypeptide
B16: 80 (protein)
chain: B1 chain with S183P, A307G, V355A
modifications: exemplary polypeptide
B17: 62 (protein)
chain: B1 chain with S183P, V235P
modifications: exemplary polypeptide
B18: 58 (protein)
chain: B1 chain with S183P, A307G
modifications: exemplary polypeptide
B19: 50 (protein)
chain: B1 chain with A171P, S183P
modifications: exemplary polypeptide
B20: 59 (protein)
chain: B1 chain with S183P, I308V
modifications: exemplary polypeptide
B21: 57 (protein)
chain: B1 chain with S183P, A307S
modifications: exemplary polypeptide
B22: 60 (protein)
chain: B1 chain with S183P, V311T
modifications: exemplary polypeptide
B23: 49 (protein)
chain: B1 chain with T144A, S183P
modifications: exemplary polypeptide
B24: 61 (protein)
chain: B1 chain with S183P, V355T
modifications: exemplary polypeptide
B25: 70 (protein)
chain: B1 chain with Q181L, S183P
modifications: exemplary polypeptide

Assay: OTA detoxification activity assay (specific activity, fluorescence reduction ex/em 390/450 nm)
Format: biochemical
Settings: pH 6.0; SEQ ID NO: 1 = 100%
Procedure, shortened: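 Recombinant enzyme preparation with 200 ng/mL OTA in 100 mM sodium phosphate, at pH 6.0 and pH 7.5, 37° C. Degradation followed as the fall in fluorescence at ex/em 390/450 nm. Specific activity taken from the initial linear slope; one unit degrades 1 μmol OTA per min at a starting OTA of […].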

Molecule	Specific OTA detoxification activities in % compared to the enzyme of SEQ ID NO: 1, pH 6.0 [%]
B1	64
B2	70
B3	5
B4	32
B5	51
B6	20
B7	36
B8	32
B9	34
B10	43
B11	102
B12	54
B13	27
B14	33
B15	15
B16	7
B17	35
B18	6
B19	81
B20	69
B21	15
B22	23
B23	76
B24	15
B25	80

Same assay, conditions: pH 7.5; SEQ ID NO: 1 = 100%

Molecule	Specific OTA detoxification activities in % compared to the enzyme of SEQ ID NO: 1, pH 7.5 [%]
B1	100
B2	67
B3	3
B4	87
B5	28
B6	23
B7	146
B8	17
B9	46
B10	112
B11	75
B12	102
B13	54
B14	40
B15	15
B16	3
B17	26
B18	8
B19	257
B20	333
B21	16
B22	61
B23	179
B24	34
B25	77

Assay: Thermostability assay: residual OTA detoxification activity after 10 min incubation at 45-99° C. (T50)
Format: physicochemical
Settings: 0.1 mg/mL protein in 20 mM Tris-HCl pH 7.5, residual OTA detoxification activity relative to 4° C. reference aliquot
Procedure, shortened: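 T50 marks the temperature range at which half the starting OTA-detoxifying activity is lost, versus an unheated 4 °C reference. Samples were 0.1 mg/mL purified protein in 20 mM Tris-HCl pH 7.5, exposed for 10 min to 45, 55, 65, 75, 80, 85, 90, 95 or 99 °C.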

Molecule	T50 (temperature at which 50% of the initial activity was maintained)
B1	<63.2 °C
B2	70.7-72.6 °C
B3	65.3-66.9 °C
B4	66-68 °C
B5	<63.2 °C
B6	74.4-77.0 °C
B7	63-64 °C
B8	70.7-72.6 °C
B9	74.4-77.0 °C
B10	72-74 °C
B11	<63.2 °C
B12	<63.2 °C
B13	64-66 °C
B14	<63.2 °C
B15	65.3-66.9 °C
B16	64.0-65.3 °C
B17	63-64 °C
B18	72 °C
B19	64 °C
B20	68-70 °C
B21	68-70 °C
B22	66-68 °C
B23	68-70 °C
B24	66-68 °C
B25	<63.2 °C
